Tests used:
[1] = system: experimentelle Tumoren und Xenotransplantate, human; test: Accumulation (concentration) of radiolabelled agents in experimental tumours and human xenografts; format: in vivo, Ratte; Nacktmaus; settings: 300 µC = 11,1 MBq administered; 1a and 1c in all tumours/xenografts of the 2nd table, compound of Beispiel 2 only in Walker Carcinosarcom, Osteosarcom, Ovarialcarcinom (O-342)
Excerpt: Schließlich wurden für CT-Untersuchungen die folgenden Verbindungen gemäß Beispiel 2 hergestellt: • 4a) Tri-jod-phenol-CMPEG • 4b) Tri-jod-benzoesäure-AMPEG • 4c) Iodoxaminsäure-(AMPEG)₂ Die Anreicherung (Konzentrierung) dieser Mittel wurde an folgenden experimentellen Tumoren und an folgenden Tiermodellen geprüft:
Alle diese experimentellen Tumoren und Xenotransplantate wurden mit den Verbindungen a und c gemäß Beispiel 1 (also 1a und 1c) und drei davon, nämlich das Walker Carcinosarcom, das Osteosarcom und das Ovarialcarcinom (O-342) auch mit dem Diphosphonat gemäß Beispiel 2 untersucht.
(§1) Bei allen diesen Anwendungsversuchen wurden immer 300 µC = 11,1 MBq verabreicht. ES zeigten sich mit den eingesetzten Mitteln, nämlich 1a und 1c und die Verbindung aus Beispiel 2 eine Konzentration von mindestens 30 % des Mittels an der gewünschten Stelle, also am Tumor. Die beigefügte Fig. 4 zeigt das Bild einer BDIX-Rattemit Ovarialcarcinom 42 h nach Injektion, die mit ¹³¹J-HOPAD-CMPEG, also ¹³¹J-Hydroxyphenyl-1-aminomethan-1,1-diphosphonat- Cyanurchlorid aktiviertes Polyethylenglykol (n = ca. 100 bis 110) in einer Menge von 300 µC behandelt war. Das Bild zeigt, daß ganz unten, im Tumor ca. 30 +/- 2 % des Mittels konzentriert sind, während in der Mitte die Leber ca. 10 % zeigt und die Schilddrüse, die oberhalb der Leber sichtbar ist, weit weniger als 2 % des Mittels aufgenommen hat. Diese %-Angaben beziehen sich auf die Gesamtmenge an die mit radiojadmarkierten Mittel im Gesamtkörper der Ratte.

Ovarialcarcinom = test: Whole-body distribution of radioiodine-labelled agent in tumour-bearing rat (Fig. 4, Fig. 5); format: in vivo, BD IX Ratte
Description: as §1
Die beigefügte Fig. 5 zeigt die Messung einer mit ¹³¹I TOP-(CMPEG)4 behandelten BD IX Ratte (auch hier Ovarialcarcinom). Es zeigt sich ein ähnliches Ergebnis wie das von Fig. 4.
Von der gesamten Körperaktivität an radioaktivem Jod finden sich nach 150 h etwa 23 % im Tumor, etwa 12 % in der Leber, etwa 5 % im Blut und etwa 3 - 4 % jeweils in den Muskeln und in der Schilddrüse. Der Rest ist natürlich, wie auch bei der Aufnahme von Fig 4, über den restlichen Körper verteilt.

[2] = Photodynamic activity of the photosensitiser
[3] = BD IX rat, Ovarialcarcinom, after 150 h, % of total body activity of radioactive iodine
[4] = BDIX rat with Ovarialcarcinom, 42 h after injection, 300 µC, % of total labelled agent in whole body

Substance: ¹¹¹-In-Tetra-(hydroxyphenoxy)-phthalocyanin-(CMPEG)₄ [1c]
- Konzentration des Mittels an der gewünschten Stelle, also am Tumor [1]: ≥ 30%

Substance: ¹³¹I-Tetra(hydroxyphenyl)-porphin-(CMPEG)₄ [1a]
- Konzentration des Mittels an der gewünschten Stelle, also am Tumor [1]: ≥ 30%
- im Blut (Ovarialcarcinom; [3]): ~5%
- im Tumor (Ovarialcarcinom; [3]): ~23%
- in den Muskeln (Ovarialcarcinom; [3]): 3 - 4%
- in der Leber (Ovarialcarcinom; [3]): ~12%
- in der Schilddrüse (Ovarialcarcinom; [3]): 3 - 4%

Substance: ¹³¹-I-Hydroxyphenylaminomethandiphosphonat- (CMPEG)₂ [Verbindung aus Beispiel 2]
- Konzentration des Mittels an der gewünschten Stelle, also am Tumor [1]: ≥ 30%
- Leber (Ovarialcarcinom; [4]): ca. 10%
- Schilddrüse (Ovarialcarcinom; [4]): < 2%
- im Tumor konzentriert (Ovarialcarcinom; [4]): ca. 30 +/- 2%

Substance: Tetra-(4 Amino-phenoxy)-phthalocyanin -CMPEG [TAPPC-CMPEG]
- "bleaching" [2]: kaum "bleaching" festzustellen
- fotodynamische Aktivität [2]: sehr hohe fotodynamische Aktivität bis über 720 nm

— patent EP0485563B1, “POLYETHER-SUBSTITUTED TUMOR AGENTS” (Deutsches Krebsforschungszentrum Stiftung des öffentlichen …, priority 1990, dated 1991)
